Patent publication US20240018226A1

Biological target: pHrodo-labeled 4RON human tau P301L soluble oligomer (human), P10636
Experiment: cell-based or functional assay

pHrodo-labeled 4RON human tau P301L soluble oligomer (human), P10636, sequence (P10636 other isoform, or with tags, fused parts or gaps P301L P301L): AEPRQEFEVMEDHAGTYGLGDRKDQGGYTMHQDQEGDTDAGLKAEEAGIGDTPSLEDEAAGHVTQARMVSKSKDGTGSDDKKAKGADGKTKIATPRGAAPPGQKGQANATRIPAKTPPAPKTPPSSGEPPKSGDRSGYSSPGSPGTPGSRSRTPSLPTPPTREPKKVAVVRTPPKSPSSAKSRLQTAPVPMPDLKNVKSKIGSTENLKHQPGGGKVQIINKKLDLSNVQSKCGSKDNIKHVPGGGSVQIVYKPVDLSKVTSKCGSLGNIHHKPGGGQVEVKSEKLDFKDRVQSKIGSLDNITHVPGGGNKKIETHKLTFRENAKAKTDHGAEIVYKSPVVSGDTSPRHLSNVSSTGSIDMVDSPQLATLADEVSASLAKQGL

B1: mouse 3D6 (antibody, V domains shown)
VH: EVQLQQSGADLVRPGALVKLSCKASGFNIKDYYLHWVRQRPEQGLEWIGWIDPENGDTVYDPKFQGKATITADTSSNTAYLQLGSLTSEDTAVYFCSTLDFWGQGTTLTVSS
VL: not shown
modifications: here or on the partner: labeled with pHrodo Red succinimidyl ester (sites not given)
IC50 of inhibition of tau internalization into B103 neuroblastoma cells (pHrodo Texas Red mean fluorescence intensity, FACS): 9 nM
